Experimental data published in patent publication US20230365701A1 (Pfizer, published 2023).

What was measured:
[1] = biological target: T1, human LTBR on cells (endogenous on HUVEC, HT29, primary human fibroblasts and moDC; LTBR-expressing HEK293) (human, UniProt P36941 31-435); test: flow cytometry with AF647-labeled antibody on HUVEC (endogenous human LTBR), 1.5 hours on ice
T1 construct: also called endogenous human LTBR
Experimental: (§1) Endogenous human LTBR binding: 1E01 binding to endogenous LTBR on human endothelial cells (human umbilical vein endothelial cells (HUVEC)) and tumor cells (HT29 human colorectal carcinoma cells) was assessed in a flow cytometry-based assay using AF647-labeled antibody and Quantbrite™ beads. Cells were incubated with antibody for 1.5 hours on ice prior to endpoint analysis. Results confirmed the binding of 1E01 to endogenous human LTBR.

[2] = biological target: cynomolgus monkey LTBR on primary cynomolgus monkey fibroblasts (cynomolgus monkey, UniProt P36941 1-435 (human entry)); test: cell-based or functional assay
[3] = biological target: T1, human LTBR on cells (endogenous on …); test: cell-based or functional assay
[4] = biological target: chimeric LTBR with a human extracellular domain and mouse transmembrane and intracellular domains, on CT26 … (human; mouse); test: cell-based or functional assay
[5] = biological target: T1, human LTBR on cells (endogenous on …); test: flow cytometry with AF647-labeled antibody on HT29 cells (endogenous human LTBR), 1.5 hours on ice
Experimental: as §1

human LTBR protein = biological target: T2, human LTBR protein (human, UniProt P36941 31-227, limits assumed); test: not stated at this place (SPR by the heading before paragraph 293, where the value is repeated); human LTBR
T2 construct: Protein used for the KD, binning and crystallization; In the crystal the entire extracellular domain was ordered; also called lymphotoxin beta receptor; TNFR3
T2 sequence (P36941 31-227 limits assumed): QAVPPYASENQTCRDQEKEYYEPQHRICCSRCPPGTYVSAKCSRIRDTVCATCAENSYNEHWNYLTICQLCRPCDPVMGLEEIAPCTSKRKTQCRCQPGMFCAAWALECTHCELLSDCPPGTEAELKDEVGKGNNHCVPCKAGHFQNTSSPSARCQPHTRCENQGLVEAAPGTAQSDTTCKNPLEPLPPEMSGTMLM

T1 sequence (P36941 31-435 limits assumed): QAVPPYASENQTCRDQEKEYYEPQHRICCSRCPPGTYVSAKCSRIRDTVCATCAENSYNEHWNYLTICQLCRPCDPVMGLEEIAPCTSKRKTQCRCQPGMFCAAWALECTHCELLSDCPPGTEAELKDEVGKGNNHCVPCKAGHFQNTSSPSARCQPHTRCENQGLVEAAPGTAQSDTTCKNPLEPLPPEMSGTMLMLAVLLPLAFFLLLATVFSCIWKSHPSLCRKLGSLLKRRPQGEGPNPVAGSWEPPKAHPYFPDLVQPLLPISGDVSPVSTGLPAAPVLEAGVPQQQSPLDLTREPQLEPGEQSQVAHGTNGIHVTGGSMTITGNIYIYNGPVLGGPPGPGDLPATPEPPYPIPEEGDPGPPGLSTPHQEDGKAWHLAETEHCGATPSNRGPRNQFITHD
Sequence of chimeric LTBR with a human extracellular domain and mouse transmembrane and intracellular domains, on CT26 … (human; mouse) (chain, as listed by the source mutant limits assumed): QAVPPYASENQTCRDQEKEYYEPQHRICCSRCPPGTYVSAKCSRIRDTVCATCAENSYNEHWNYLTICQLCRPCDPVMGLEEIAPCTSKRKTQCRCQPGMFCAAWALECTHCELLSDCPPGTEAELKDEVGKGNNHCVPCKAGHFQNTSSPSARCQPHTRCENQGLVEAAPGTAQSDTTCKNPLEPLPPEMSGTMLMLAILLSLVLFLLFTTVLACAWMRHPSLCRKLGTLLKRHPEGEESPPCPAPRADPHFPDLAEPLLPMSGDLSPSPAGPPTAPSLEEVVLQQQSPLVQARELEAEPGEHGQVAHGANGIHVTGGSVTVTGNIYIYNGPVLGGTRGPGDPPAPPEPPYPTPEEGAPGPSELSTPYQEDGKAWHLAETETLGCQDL
Sequence of cynomolgus monkey LTBR on primary cynomolgus monkey fibroblasts (P36941 other isoform, or with tags, fused parts or gaps limits assumed): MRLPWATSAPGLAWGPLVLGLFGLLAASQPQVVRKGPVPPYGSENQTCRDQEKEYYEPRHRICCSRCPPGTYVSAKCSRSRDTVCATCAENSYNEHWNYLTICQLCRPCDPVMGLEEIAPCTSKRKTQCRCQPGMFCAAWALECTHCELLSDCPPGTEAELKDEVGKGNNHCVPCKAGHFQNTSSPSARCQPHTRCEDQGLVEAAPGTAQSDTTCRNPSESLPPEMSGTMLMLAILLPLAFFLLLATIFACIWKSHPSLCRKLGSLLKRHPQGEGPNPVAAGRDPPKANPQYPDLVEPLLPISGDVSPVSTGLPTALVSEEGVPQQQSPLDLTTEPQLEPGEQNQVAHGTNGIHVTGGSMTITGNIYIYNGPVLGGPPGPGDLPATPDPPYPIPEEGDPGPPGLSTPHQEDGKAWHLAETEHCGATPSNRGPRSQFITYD

B1: 1E01 tetravalent antibody (antibody, human IgG1, kappa)
heavy: QVQLVQSGAEVKKPGSSVKVSCKASGGTFSSYFWSWVRQAPGQGLEWMGRFYSGGSANYNPSLKERVTITADESTSTAYMELSSLRSEDTAVYYCARERRGYSGGFEIWGQGTLVTVSSASTKGPSVFPLAPSSKSTSGGTAALGCLVKDYFPEPVTVSWNSGALTSGVHTFPAVLQSSGLYSLSSVVTVPSSSLGTQTYICNVNHKPSNTKVDKKVEPKSCGGGGSQVQLVQSGAEVKKPGSSVKVSCKASGGTFSSYFWSWVRQAPGQGLEWMGRFYSGGSANYNPSLKERVTITADESTSTAYMELSSLRSEDTAVYYCARERRGYSGGFEIWGQGTLVTVSSASTKGPSVFPLAPSSKSTSGGTAALGCLVKDYFPEPVTVSWNSGALTSGVHTFPAVLQSSGLYSLSSVVTVPSSSLGTQTYICNVNHKPSNTKVDKKVEPKSCDKTHTCPPCPAPEAAGAPSVFLFPPKPKDTLMISRTPEVTCVVVDVSHEDPEVKFNWYVDGVEVHNAKTKPREEQYNSTYRVVSVLTVLHQDWLNGKEYKCKVSNKALPAPIEKTISKAKGQPREPQVYTLPPSREEMTKNQVSLTCLVKGFYPSDIAVEWESNGQPENNYKTTPPVLDSDGSFFLYSKLTVDKSRWQQGNVFSCSVMHEALHNHYTQKSLSLSPGK
light: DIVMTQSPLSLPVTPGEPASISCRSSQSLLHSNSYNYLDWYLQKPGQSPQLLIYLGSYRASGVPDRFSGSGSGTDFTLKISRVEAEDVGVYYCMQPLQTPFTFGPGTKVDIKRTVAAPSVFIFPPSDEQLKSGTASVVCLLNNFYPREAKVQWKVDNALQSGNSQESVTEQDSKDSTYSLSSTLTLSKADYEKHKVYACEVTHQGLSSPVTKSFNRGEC
notes: Extended heavy chain VH-CH1-linker-VH-CH1-hinge-CH2-CH3; AF647-labeled in the flow cytometry assay; also called tetravalent 1E01
[1]
  EC50: 76 ng/mL
[2]
  CXCL10 Release, EC50 (ug/mL), primary cyno fibroblasts: 0.00902 µg/mL
[3]
  CXCL10 Release, EC50 (ug/mL), primary human dermal fibroblasts: 0.00231 µg/mL
[4]
  NFkB Activation, EC50 (ug/mL), CT26 hEC-mTM-mIC NFkB luciferase reporter cells: 0.00173 µg/mL
[5]
  EC50: 73 ng/mL

B2: anti-LTBR clone 1E01 (Fab clone "1E01") (Fab, V domains shown)
VH: QVQLVQSGAEVKKPGSSVKVSCKASGGTFSSYFWSWVRQAPGQGLEWMGRFYSGGSANYNPSLKERVTITADESTSTAYMELSSLRSEDTAVYYCARERRGYSGGFEIWGQGTLVTVSS
VL: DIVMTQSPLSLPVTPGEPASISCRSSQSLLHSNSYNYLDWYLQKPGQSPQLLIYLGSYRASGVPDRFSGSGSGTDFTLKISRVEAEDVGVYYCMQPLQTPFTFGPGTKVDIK
notes: Only VH and VL are tied to the clone; also called 1E01 antibody
Human LTBR protein
  Kd: 115 nM
